Measured values published in patent US20250186594A1.

Assays:
[1] = target: IL-18 variant SEQ ID NO: 57 (E6K, C38S, K53A) (human) (UniProt Q14116)
[2] = target: Native IL-18 wild-type (SEQ ID NO: 1, native sequence) (human) (UniProt Q14116)
[3] = target: IL-18 variant SEQ ID NO: 205 (V11I, C38A, K53A, T63A, C76A, C127A) (human) (UniProt Q14116); test: cell-based or functional assay
[4] = target: IL-18 variant SEQ ID NO: 206 (V11I, C38A, K53A, S55A, C76A, C127A) (human) (UniProt Q14116); test: cell-based or functional assay
Chain of IL-18 variant SEQ ID NO: 206 (V11I, C38A, K53A, S55A, C76A, C127A) (human) (Q14116 37-193 V47I/C74A/K89A/S91A/C112A/C163A): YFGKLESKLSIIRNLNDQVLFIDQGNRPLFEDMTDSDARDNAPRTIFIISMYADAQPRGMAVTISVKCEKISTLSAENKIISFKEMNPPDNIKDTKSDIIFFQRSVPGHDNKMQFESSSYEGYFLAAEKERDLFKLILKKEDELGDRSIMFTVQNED

[5] = target: IL-18 variant SEQ ID NO: 208 (V11I, C38A, K53A, D54A, C76A, C127A) (human) (UniProt Q14116); test: cell-based or functional assay
Chain of IL-18 variant SEQ ID NO: 208 (V11I, C38A, K53A, D54A, C76A, C127A) (human) (Q14116 37-193 V47I/C74A/K89A/D90A/C112A/C163A): as the sequence (Q14116 37-193 V47I/C74A/K89A/S91A/C112A/C163A) above, with D54A, A55S counted along it

[6] = target: IL-18 variant SEQ ID NO: 210 (V11I, E31A, C38A, K53A, C76A, C127A) (human) (UniProt Q14116); test: cell-based or functional assay
Chain of IL-18 variant SEQ ID NO: 210 (V11I, E31A, C38A, K53A, C76A, C127A) (human) (Q14116 37-193 V47I/E67A/C74A/K89A/C112A/C163A): as the sequence (Q14116 37-193 V47I/C74A/K89A/S91A/C112A/C163A) above, with E31A, A55S counted along it

[7] = target: IL-18 variant SEQ ID NO: 211 (V11I, T34A, C38A, K53A, C76A, C127A) (human) (UniProt Q14116); test: cell-based or functional assay
Chain of IL-18 variant SEQ ID NO: 211 (V11I, T34A, C38A, K53A, C76A, C127A) (human) (Q14116 37-193 V47I/T70A/C74A/K89A/C112A/C163A): as the sequence (Q14116 37-193 V47I/C74A/K89A/S91A/C112A/C163A) above, with T34A, A55S counted along it

[8] = target: IL-18 variant SEQ ID NO: 212 (V11I, D35A, C38A, K53A, C76A, C127A) (human) (UniProt Q14116); test: cell-based or functional assay
Chain of IL-18 variant SEQ ID NO: 212 (V11I, D35A, C38A, K53A, C76A, C127A) (human) (Q14116 37-193 V47I/D71A/C74A/K89A/C112A/C163A): as the sequence (Q14116 37-193 V47I/C74A/K89A/S91A/C112A/C163A) above, with D35A, A55S counted along it

[9] = target: IL-18 variant SEQ ID NO: 213 (V11I, S36A, C38A, K53A, C76A, C127A) (human) (UniProt Q14116); test: cell-based or functional assay
Chain of IL-18 variant SEQ ID NO: 213 (V11I, S36A, C38A, K53A, C76A, C127A) (human) (Q14116 37-193 V47I/S72A/C74A/K89A/C112A/C163A): as the sequence (Q14116 37-193 V47I/C74A/K89A/S91A/C112A/C163A) above, with S36A, A55S counted along it

[10] = target: IL-18 variant SEQ ID NO: 215 (V11I, E31A, D37A, C38A, K53A, C76A, C127A) (human) (UniProt Q14116); test: cell-based or functional assay
Chain of IL-18 variant SEQ ID NO: 215 (V11I, E31A, D37A, C38A, K53A, C76A, C127A) (human) (Q14116 37-193 V47I/E67A/D73A/C74A/K89A/C112A/C163A): as the sequence (Q14116 37-193 V47I/C74A/K89A/S91A/C112A/C163A) above, with E31A, D37A, A55S counted along it

[11] = target: IL-18 variant SEQ ID NO: 216 (V11I, C38A, D40A, K53A, C76A, C127A) (human) (UniProt Q14116); test: cell-based or functional assay
Chain of IL-18 variant SEQ ID NO: 216 (V11I, C38A, D40A, K53A, C76A, C127A) (human) (Q14116 37-193 V47I/C74A/D76A/K89A/C112A/C163A): as the sequence (Q14116 37-193 V47I/C74A/K89A/S91A/C112A/C163A) above, with D40A, A55S counted along it

[12] = target: IL-18 variant SEQ ID NO: 218 (V11I, C38A, K53A, C76A, C127A, D132A) (human) (UniProt Q14116); test: cell-based or functional assay
Chain of IL-18 variant SEQ ID NO: 218 (V11I, C38A, K53A, C76A, C127A, D132A) (human) (Q14116 37-193 V47I/C74A/K89A/C112A/C163A/D168A): as the sequence (Q14116 37-193 V47I/C74A/K89A/S91A/C112A/C163A) above, with A55S, D132A counted along it

[13] = target: IL-18 variant SEQ ID NO: 222 (K8R, V11I, C38A, C76A, Q103E, C127A) (human) (UniProt Q14116); test: cell-based or functional assay
Chain of IL-18 variant SEQ ID NO: 222 (K8R, V11I, C38A, C76A, Q103E, C127A) (human) (Q14116 other isoform, or with tags, fused parts or gaps V11I C38A C76A Q103E C127A V11I C38A C76A Q103E C127A): as the sequence (Q14116 37-193 V47I/C74A/K89A/S91A/C112A/C163A) above, with K8R, A53K, A55S, Q103E counted along it

[14] = target: IL-18 variant SEQ ID NO: 224 (V11I, C38A, C76A, Q103K, C127A) (human) (UniProt Q14116); test: cell-based or functional assay
Chain of IL-18 variant SEQ ID NO: 224 (V11I, C38A, C76A, Q103K, C127A) (human) (Q14116 37-193 V47I/C74A/C112A/Q139K/C163A): as the sequence (Q14116 37-193 V47I/C74A/K89A/S91A/C112A/C163A) above, with A53K, A55S, Q103K counted along it

[15] = target: IL-18 variant SEQ ID NO: 225 (V11I, C38A, S55H, C76A, C127A) (human) (UniProt Q14116); test: cell-based or functional assay
Chain of IL-18 variant SEQ ID NO: 225 (V11I, C38A, S55H, C76A, C127A) (human) (Q14116 37-193 V47I/C74A/S91H/C112A/C163A): as the sequence (Q14116 37-193 V47I/C74A/K89A/S91A/C112A/C163A) above, with A53K, A55H counted along it

[16] = target: IL-18 variant SEQ ID NO: 28 (E6K, C38A, K53A, T63A, C76A, C127A) (human) (UniProt Q14116); test: cell-based or functional assay
Chain of IL-18 variant SEQ ID NO: 28 (E6K, C38A, K53A, T63A, C76A, C127A) (human) (Q14116 other isoform, or with tags, fused parts or gaps C38A K53A T63A C76A C127A C38A K53A T63A C76A C127A): as the sequence (Q14116 37-193 V47I/C74A/K89A/S91A/C112A/C163A) above, with E6K, I11V, A55S, T63A counted along it

[17] = target: IL-18 variant SEQ ID NO: 30 (E6K, V11I, C38A, K53A, T63A, C76A, C127A) (human) (UniProt Q14116); test: cell-based or functional assay
Chain of IL-18 variant SEQ ID NO: 30 (E6K, V11I, C38A, K53A, T63A, C76A, C127A) (human) (Q14116 other isoform, or with tags, fused parts or gaps with the stated changes): as the sequence (Q14116 37-193 V47I/C74A/K89A/S91A/C112A/C163A) above, with E6K, A55S, T63A counted along it

[18] = target: IL-18 variant SEQ ID NO: 30 with 20 kDa PEG (E6K, V11I, C38A, K53A, T63A, C76A, C127A, C68-20kPEG) (human) (UniProt Q14116); test: cell-based or functional assay
Chain of IL-18 variant SEQ ID NO: 30 with 20 kDa PEG (E6K, V11I, C38A, K53A, T63A, C76A, C127A, C68-20kPEG) (human) (Q14116 other isoform, or with tags, fused parts or gaps with the stated changes): as the sequence (Q14116 37-193 V47I/C74A/K89A/S91A/C112A/C163A) above, with E6K, A55S, T63A counted along it

[19] = target: IL-18 variant SEQ ID NO: 4 (E6K, C38A, K53A, C68A, M86C) (human) (UniProt Q14116); test: cell-based or functional assay
Chain of IL-18 variant SEQ ID NO: 4 (E6K, C38A, K53A, C68A, M86C) (human) (Q14116 other isoform, or with tags, fused parts or gaps C38A K53A C68A M86C C38A K53A C68A M86C): as the sequence (Q14116 37-193 V47I/C74A/K89A/S91A/C112A/C163A) above, with E6K, I11V, A55S, C68A, A76C, M86C, A127C counted along it

[20] = target: IL-18 variant SEQ ID NO: 5 with 30 kDa PEG (E6K, V11I, C38A, K53A, T63A, C68A, C76A, C127A, M86C-30kPEG) (human) (UniProt Q14116); test: cell-based or functional assay
Chain of IL-18 variant SEQ ID NO: 5 with 30 kDa PEG (E6K, V11I, C38A, K53A, T63A, C68A, C76A, C127A, M86C-30kPEG) (human) (Q14116 other isoform, or with tags, fused parts or gaps with the stated changes): as the sequence (Q14116 37-193 V47I/C74A/K89A/S91A/C112A/C163A) above, with E6K, A55S, T63A, C68A, M86C counted along it

[21] = target: IL-18 variant SEQ ID NO: 57 with 30 kDa PEG (E6K, C38S, K53A, C68-30kDPEG) (human) (UniProt Q14116); test: cell-based or functional assay
Chain of IL-18 variant SEQ ID NO: 57 with 30 kDa PEG (E6K, C38S, K53A, C68-30kDPEG) (human) (Q14116 other isoform, or with tags, fused parts or gaps C38S K53A C38S K53A): as the sequence (Q14116 37-193 V47I/C74A/K89A/S91A/C112A/C163A) above, with E6K, I11V, A38S, A55S, A76C, A127C counted along it

[22] = target: IL-18 variant SEQ ID NO: 59 with 10 kDa PEG (E6K, C38A, K53A, C68-10kPEG) (human) (UniProt Q14116); test: cell-based or functional assay
Chain of IL-18 variant SEQ ID NO: 59 with 10 kDa PEG (E6K, C38A, K53A, C68-10kPEG) (human) (Q14116 other isoform, or with tags, fused parts or gaps C38A K53A C38A K53A): as the sequence (Q14116 37-193 V47I/C74A/K89A/S91A/C112A/C163A) above, with E6K, I11V, A55S, A76C, A127C counted along it

[23] = target: IL-18 variant SEQ ID NO: 6 (E6K, V11I, C38A, K53A, T63A, C68A, C76A, D98C, C127A) (human) (UniProt Q14116); test: cell-based or functional assay
[24] = target: IL-18 variant SEQ ID NO: 60 with 30 kDa PEG (E6K, C38Q, K53A, C68-30kPEG) (human) (UniProt Q14116); test: cell-based or functional assay
Chain of IL-18 variant SEQ ID NO: 60 with 30 kDa PEG (E6K, C38Q, K53A, C68-30kPEG) (human) (Q14116 other isoform, or with tags, fused parts or gaps C38Q K53A C38Q K53A): as the sequence (Q14116 37-193 V47I/C74A/K89A/S91A/C112A/C163A) above, with E6K, I11V, A38Q, A55S, A76C, A127C counted along it

[25] = target: IL-18 variant SEQ ID NO: 61 (E6K, C38A, K53A, C76A) (human) (UniProt Q14116); test: cell-based or functional assay
Chain of IL-18 variant SEQ ID NO: 61 (E6K, C38A, K53A, C76A) (human) (Q14116 other isoform, or with tags, fused parts or gaps C38A K53A C76A C38A K53A C76A): as the sequence (Q14116 37-193 V47I/C74A/K89A/S91A/C112A/C163A) above, with E6K, I11V, A55S, A127C counted along it

[26] = target: IL-18 variant SEQ ID NO: 61 with 30 kDa PEG (E6K, C38A, K53A, C76A, C68-30kPEG) (human) (UniProt Q14116); test: cell-based or functional assay
Chain of IL-18 variant SEQ ID NO: 61 with 30 kDa PEG (E6K, C38A, K53A, C76A, C68-30kPEG) (human) (Q14116 other isoform, or with tags, fused parts or gaps C38A K53A C76A C38A K53A C76A): as the sequence (Q14116 37-193 V47I/C74A/K89A/S91A/C112A/C163A) above, with E6K, I11V, A55S, A127C counted along it

[27] = target: IL-18 variant SEQ ID NO: 62 with 30 kDa PEG (E6K, C38A, K53A, C127A, C68-30kPEG) (human) (UniProt Q14116); test: cell-based or functional assay
Chain of IL-18 variant SEQ ID NO: 62 with 30 kDa PEG (E6K, C38A, K53A, C127A, C68-30kPEG) (human) (Q14116 other isoform, or with tags, fused parts or gaps C38A K53A C127A C38A K53A C127A): as the sequence (Q14116 37-193 V47I/C74A/K89A/S91A/C112A/C163A) above, with E6K, I11V, A55S, A76C counted along it

[28] = target: IL-18 variant SEQ ID NO: 8 (E6K, V11I, C38A, K53A, T63A, C68A, C76A, T95C, C127A) (human) (UniProt Q14116); test: cell-based or functional assay
Chain of IL-18 variant SEQ ID NO: 8 (E6K, V11I, C38A, K53A, T63A, C68A, C76A, T95C, C127A) (human) (Q14116 other isoform, or with tags, fused parts or gaps with the stated changes): as the sequence (Q14116 37-193 V47I/C74A/K89A/S91A/C112A/C163A) above, with E6K, A55S, T63A, C68A, T95C counted along it

[29] = target: IL-18 variant SEQ ID NO: 9 with 30 kDa PEG (E6K, C38A, K53A, C68A, D98C-30kPEG) (human) (UniProt Q14116); test: cell-based or functional assay
Chain of IL-18 variant SEQ ID NO: 9 with 30 kDa PEG (E6K, C38A, K53A, C68A, D98C-30kPEG) (human) (Q14116 other isoform, or with tags, fused parts or gaps C38A K53A C68A D98C C38A K53A C68A D98C): as the sequence (Q14116 37-193 V47I/C74A/K89A/S91A/C112A/C163A) above, with E6K, I11V, A55S, C68A, A76C, D98C, A127C counted along it

Chain of IL-18 variant SEQ ID NO: 205 (V11I, C38A, K53A, T63A, C76A, C127A) (human) (Q14116 37-193 V47I/C74A/K89A/T99A/C112A/C163A): as the sequence (Q14116 37-193 V47I/C74A/K89A/S91A/C112A/C163A) above, with A55S, T63A counted along it
Chain of IL-18 variant SEQ ID NO: 57 (E6K, C38S, K53A) (human) (Q14116 other isoform, or with tags, fused parts or gaps C38S K53A C38S K53A): as the sequence (Q14116 37-193 V47I/C74A/K89A/S91A/C112A/C163A) above, with E6K, I11V, A38S, A55S, A76C, A127C counted along it
Chain of Native IL-18 wild-type (SEQ ID NO: 1, native sequence) (human) (Q14116 37-193): as the sequence (Q14116 37-193 V47I/C74A/K89A/S91A/C112A/C163A) above, with I11V, A38C, A53K, A55S, A76C, A127C counted along it

Fc fused human IL-18BP isoform a (IL-18BPa) (from UniProt O95998 31-194) (Fc fusion)
IC50 (read off the curve); IFNγ secretion by NK-92 cells (IFNg AlphaLISA signal, 615 nM) [1]: 200 nM
IC50 (read off the curve); IFNγ secretion by NK-92 cells (IFNg AlphaLISA signal, 615 nM) [2]: 0.9 nM
IC50 of IL-18BPa-Fc on IFNγ secretion, NK-92 [3]: 7.52 nM
IC50 of IL-18BPa-Fc on IFNγ secretion, NK-92 [4]: 10.2 nM
IC50 of IL-18BPa-Fc on IFNγ secretion, NK-92 [5]: 47.6 nM
IC50 of IL-18BPa-Fc on IFNγ secretion, NK-92 [6]: 1.17 nM
IC50 of IL-18BPa-Fc on IFNγ secretion, NK-92 [7]: 21.3 nM
IC50 of IL-18BPa-Fc on IFNγ secretion, NK-92 [8]: 3.62 nM
IC50 of IL-18BPa-Fc on IFNγ secretion, NK-92 [9]: 7.85 nM
IC50 of IL-18BPa-Fc on IFNγ secretion, NK-92 [10]: 3.71 nM
IC50 of IL-18BPa-Fc on IFNγ secretion, NK-92 [11]: 3.23 nM
IC50 of IL-18BPa-Fc on IFNγ secretion, NK-92 [12]: 6.08 nM
IC50 of IL-18BPa-Fc on IFNγ secretion, NK-92 [13]: 1.07 nM
IC50 of IL-18BPa-Fc on IFNγ secretion, NK-92 [14]: 0.823 nM
IC50 of IL-18BPa-Fc on IFNγ secretion, NK-92 [15]: 0.456 nM
IC50 of IL-18BPa-Fc on IFNγ secretion, NK-92 [16]: 233 nM
IC50 of IL-18BPa-Fc on IFNγ secretion, NK-92 [17]: 488 nM
IC50 of IL-18BPa-Fc on IFNγ secretion, NK-92 [18]: 44.2 nM
IC50 of IL-18BPa-Fc on IFNγ secretion, NK-92 [19]: 1000 nM
IC50 of IL-18BPa-Fc on IFNγ secretion, NK-92 [20]: 32.5 nM
IC50 of IL-18BPa-Fc on IFNγ secretion, NK-92 [21]: 11.4 nM
IC50 of IL-18BPa-Fc on IFNγ secretion, NK-92 [22]: 236 nM
IC50 of IL-18BPa-Fc on IFNγ secretion, NK-92 [23]: 25.3 nM
IC50 of IL-18BPa-Fc on IFNγ secretion, NK-92 [24]: 28.1 nM
IC50 of IL-18BPa-Fc on IFNγ secretion, NK-92 [25]: 779 nM
IC50 of IL-18BPa-Fc on IFNγ secretion, NK-92 [26]: 4.29 nM
IC50 of IL-18BPa-Fc on IFNγ secretion, NK-92 [27]: 4.83 nM
IC50 of IL-18BPa-Fc on IFNγ secretion, NK-92 [28]: 522 nM
IC50 of IL-18BPa-Fc on IFNγ secretion, NK-92 [29]: 143 nM
